The values that follow come from patent publication US8076087B2, “Galectin sequences and compositions and methods utilizing same for treating or diagnosing arthritis and other chronic inflammatory diseases” (Medical Research Fund of Tel Aviv Souraskv Medical Center, priority 2002, dated 2011).

Experiment [1] relates to IL-1β. Nature of the experiment: IL-1β levels in media of LPS-supplemented human synovial tissue / cell cultures, sandwich enzyme immunoassay. Type of experiment: cell-based. Conditions: LPS 3 μg/ml, 50-2000 ng/ml, 48 hours. The method, then: (§1) Specimen Selection and Culture Conditions: Synovial tissues were obtained from patients undergoing total knee or hip replacement for osteoarthritis (OA). Within 2 hours of removal, synovial tissues were cut into small pieces, of a few millimeters in diameter. Synovial fibroblasts were cultured in 2 ml RPMI 1640 supplemented with 2 mM L-glutamine, 100 U/ml penicillin and 100 μg/ml streptomycin sulphate (Biological Industries).
(§2) Inflammatory cells and PBLs derived from joints of rheumatoid arthritic (RA) patients were cultured individually [RPMI-1640 (Sigma, Israel)]. The murine fibroblast line, NIH 3T3, was used as a control. The recombinant galectin-8 peptide (r-galectin-8) was added to the culture medium of the synovial fibroblasts at a concentration of 0.125 μM, 0.25 μM, 0.5 μM and 1 μM) together with lipopolysaccharide (LPS, 3 μg/ml). The recombinant galectin-8 peptide variants (r-galectin-8 variant 1 and r-galectin-8 variant 2) were added to all the culture mediums in the following concentrations: 50 ng/ml, 125 ng/ml, 250 ng/ml, 500 ng/ml, 750 ng/ml, 1 μg/ml and 2 μg/ml together with lipopolysaccharide (LPS, 3 μg/ml). Following 48 hours of incubation (37° C., 5% CO2), the measurement of IL-1β, TNF-α and IL-1ra production was performed in supernatants by quantitative sandwich enzyme immunoassay technique (R&D Systems, Inc., USA). Detection limits were 1 pg/ml to 14 pg/ml. IL-1ra production was tested with and without the addition of lipopolysaccharide (LPS, 3 μg/ml) to the culture media.

Experiment [2] concerns collagen induced arthritis (CIA). Nature of the experiment: Histopathological examination of rear footpad joints of CIA mice. It is filed as in vivo, DBA/1 mice. Conditions: compared with joints of arthritic mice treated with PBS or PBS+30% glycerol. The source says:
Histopathological examination: The rear footpad joints of 5 arthritic mice that received PBS or PBS+30% glycerol (group 1, negative control), 2 arthritic mice that received anti-mouse-TNFα mAb (group 2, positive control), 3 arthritic mice that received human galectin-8 protein (group 3, positive control), 3 normal healthy mice and 5 arthritic mice that received human galectin-8 variant 1 (group 4) were sent to an accredited pathological laboratory (Patho-Lab, Kiryat Weitzmann, Rehovot) for histopathological examination.
Quantification of the arthritic changes was made subjectively based on degree of articular destruction and following evaluation of the different parameters often observed in arthritic joints. The definition of the parameters quantitated were: • 1. Cellularity within the joint: Cells present couldn't be identified due to loss of cellular morphology (decal), therefore red blood cells and leukocytes were all graded together. • 2. Presence of fibrin in the joint: Fibrin was present in apparently more acute lesions, but the amount of fibrin was proportionally small. • 3. Cartilage loss: Cartilage surfaces were evaluated in the section, slight changes of irregularity of the surface were noted. • 4. […] Synovial cell loss: Identification of synovial cells was difficult due to poor cellular morphology, but in general synovial surfaces were evaluated for integrity. • 6. […]

In experiment [3] the test system is IL-1β. Nature of the experiment: IL-1β levels in media of NIH 3T3 fibroblasts (negative control cells). It is filed as cell-based, murine. Conditions: LPS 3 μg/ml, 50-2000 ng/ml, 48 hours. How it is done: as §2
Experiment [4] relates to PBLs of arthritic patients. The experiment can be described thus: Apoptosis induction, annexin V/PI flow cytometry, PBLs. Conditions: lowest concentration 50 ng/ml. It is filed as cell-based, human. The method, then: (§3) The assay was performed by Phosphatidyl Serine Detection Kit (IOP-116F FITC-conjugated, IQ Products, The Netherlands) using the manufacturer instructions. Human fibroblast cells from OA patients, synovial fluid cells and PBLs from RA and other arthritic patients were incubated with increasing concentrations of galectin-8 variants 1 and 2 (50-2000 ng/ml). Specific binding of annexin V was performed by the incubation of cells for 20 minutes on ice in a binding calcium buffer containing a saturating concentration of annexin V-fluorescein isothiocyanate (FITC) and propdium iodide (PI). After incubation, the cells were pelleted, and analyzed in FACS analyzer (Beckton Dickinson, San Jose, Calif.). Annexin V^+/PI^+ cells were defined as necrotic, while annexin V^+/PI^− cells were defined as apoptotic. The percent of the apoptotic cells of the total cells was determined.
In general terms: In flow cytometry, cells or beads pass a laser one at a time.

The subject of the next experiment is IL-1ra. Nature of the experiment: IL-1ra levels in media of NIH 3T3 fibroblasts (negative control cells). It is filed as cell-based, murine. The settings on record: LPS 3 μg/ml, 50-2000 ng/ml, 48 hours. How it is done: as §2
Experiment [5] has as its system synovial fluid cells from RA patients. Nature of the experiment: Apoptosis induction, annexin V/PI flow cytometry, synovial fluid cells. Type of experiment: cell-based, human. The settings on record: inflammatory cells from joints of arthritic patients, lowest concentration 50 ng/ml. How it is done: as §3
In a further experiment the test system is TNFα. Nature of the experiment: TNFα levels in media of LPS-supplemented human synovial tissue / cell cultures, sandwich enzyme immunoassay. It is filed as cell-based. The settings on record: LPS 3 μg/ml, 50-2000 ng/ml, 48 hours. How it is done: as §1, §2
Setting [6] is: PBLs from RA patients, listed as galectin-8 var. 1.
[7] abbreviates: human fibroblasts from OA patients.
Where [8] appears, read: human fibroblasts from OA patients, listed as galectin-8 var. 1.
Where [9] appears, read: synovial fluid cells (SFCs), listed as galectin-8 var. 1.

B1: galectin-8 variant 1: recombinant galectin-8 variant 1 polypeptide, SEQ ID NO: 6, isoform found in synovial fluid cells of arthritic patients (protein)
chain: MMLSLNNLQNIIYNPDLQSTQASSLELTEISRENVPKSGTPQLPSNRGGDISKIAPRTVYTKSKEARQSHFDLHENTTYELCVKSLPFAARLNTPMGPGRTVVVKGEVNANAKSFNVDLLAGKSKDIALHLNPRLNIKAFVRNSFLQESWGEEERNITSFPFSPGMYFEMIIYCDVREFKVAVNGVHSLEYKHRFKELSSIDTLEINGDIHLLEVRSW
As for B1, the “IL-1β levels in media” value in the experiment on IL-1β [1] (PBLs from RA patients) is “significantly and dose-dependently inhibited”; with IL-1β [1] (setting [6]), “decrease”; with IL-1β [1] (setting [7]) it was “significantly and dose-dependently inhibited”; in the experiment on IL-1β [1] (setting [8]), “decrease”; in the experiment on IL-1β [1] (synovial fluid cells (SFCs)) it was “significantly and dose-dependently inhibited”; with IL-1β [1] (setting [9]), “decrease”. The “IL-1β levels in media” value in the experiment with IL-1β [3] is “No effect”; in the experiment on IL-1β [3] (listed as galectin-8 var. 1) it was “remain unaffected”. Besides, the “recovery of joints (histopathology)” value in experiment [2] is “recovered, most of them completely and some at least partly”. The maximal apoptotic effect entry in experiment [4] and in experiment [5] was “approximately 100%” in each case. In addition, the “IL-1ra levels in media” value is reported as “No effect” in the experiment with IL-1ra and “remain unaffected” in the experiment with IL-1ra (listed as galectin-8 var. 1). The “TNFα levels in media” value in the experiment with TNFα (PBLs from RA patients) was “significantly and dose-dependently inhibited”; in the experiment with TNFα (setting [6]) it was “decrease”; in the experiment with TNFα (setting [7]) it was “significantly and dose-dependently inhibited”; in the experiment with TNFα (setting [8]), “decrease”; with TNFα (synovial fluid cells (SFCs)), “significantly and dose-dependently inhibited”; with TNFα (setting [9]) it was “decrease”.
